Laboratory results from the supplement of paper PMC10724198.
± gives the standard deviation of the averaged measurements.

system: Saccharomyces cerevisiae; assay: protein stability index of tFT-peptide fusion (C-terminal peptide) (PSI (0-1 scale)); higher = more stable (slower turnover); settings: genetic background: wild type; temperature: 30 C
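Also: PSI is a weighted mean of sequencing reads over stability bins, variants kept only with over 10 reads, mCherry proximal and sfGFP distal, peptide attached via GGGS linker.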

Sequence	protein stability index
RLPFLPPPPCPP	0.716 ± 0.046
GITSGRAVGGRA	0.713 ± 0.011
VVVLCLFFSFFL	0.5872 ± 0.0011
TPAYTETNGLST	0.73 ± 0.042
GFGCVGSIFVIY	0.66 ± 0.018
DSSLCFAGLHNT	0.705 ± 0.054
PPLSLLPSSSPH	0.664 ± 0.0081
GGCGGVCGACVV	0.695 ± 0.011
FCFFLLGLFCNL	0.6 ± 0.062
KHSRKPTHKKLI	0.69 ± 0.016
AQRRHGRSIRRD	0.787 ± 0.019
EIKKNQKRKFDG	0.66 ± 0.041
GGGCQVSPPSLL	0.7076 ± 0.0024
GWRGGCRSGVPE	0.665 ± 0.064
PAPSLPPPRLAP	0.653 ± 0.026
PAPPPPPRPPPS	0.655 ± 0.008
SNAIKTEESKGE	0.734 ± 0.023
VATGVFADPMMC	0.667 ± 0.11
SRPLLLLPCLLP	0.643 ± 0.014
KVAGRLAATRSR	0.716 ± 0.013
SVDRVIPQERQS	0.697 ± 0.013
PPPLSSPPPRPL	0.709 ± 0.058
PPSPSPHPPPSH	0.842 ± 0.15
DRGGCRRAGSCQ	0.69 ± 0.018
KKNKGKGREVRI	0.67 ± 0.049

Sequence	protein stability index
VRYRSGLVFEGV	0.747 ± 0.039
SSPAPPPPSPAS	0.744 ± 0.043
GNKMYRSREGNC	0.6709 ± 0.003
IAFFFLHIPPAF	0.569 ± 0.076
RGAHVTRPGTRD	0.66 ± 0.034
VCLVHSPFDTLP	0.699 ± 0.037
VWGVFASPVVYR	0.712 ± 0.049
FSPLTFLLSFPL	0.679 ± 0.019
ACVPGGFVWGGV	0.754 ± 0.065
CGWTATRTCGLV	0.7541 ± 0.0063
DSLWACVGSSAL	0.771 ± 0.024
PTNPPLSQPPPQ	0.702 ± 0.039
SRRERALGQQPI	0.679 ± 0.011
RRAGHYHYSVRL	0.704 ± 0.053
CWYRCLLSCLVL	0.656 ± 0.033
DLLLGDCGVGWF	0.647 ± 0.056
DRLLLSPSPTPP	0.739 ± 0.013
LPSHRSPITSFL	0.668 ± 0.14
LLWVSAPHRYVR	0.642 ± 0.036
HRYRWPGLNSRL	0.837 ± 0.12
TYRLLAEPTPPA	0.702 ± 0.018
LRPLQPCGLIQC	0.52 ± 0.022
PNVAIMSGGQTV	0.6912 ± 0.0059
LWGEGAGPEDVG	0.674 ± 0.011
LSPPPLSPPSHP	0.723 ± 0.0092

Sequence	protein stability index
KNNKIKHIKVKN	0.679 ± 0.017
GSRWRISYQQVL	0.623 ± 0.037
PAYVSTLPPLLL	0.694 ± 0.086
APSSPPPPTLPP	0.716 ± 0.17
PAPAPSPSFRDH	0.708 ± 0.094
RVGQDGFRVAGC	0.594 ± 0.12
NTRIKGERNILH	0.702 ± 0.026
SIPLYAKNSSLP	0.722 ± 0.042
SISFSLPRPLPP	0.688 ± 0.068
VFLPPPPPPAPP	0.639 ± 0.011
THLPLPPPPPLL	0.655 ± 0.022
VRTHRVRARAVE	0.685 ± 0.019
PVRIQTFLFCVP	0.595 ± 0.012
IEKYRKNKKTGK	0.677 ± 0.016
VPLSALPPPPPA	0.703 ± 0.027
SVIRTRYSSARM	0.662 ± 0.057
RGGGRGVWGHVV	0.607 ± 0.0063
GGRGRWEMVGRT	0.7 ± 0.021
PVVTGGFHIVGF	0.793 ± 0.078
GGLSGGMRIEDS	0.686 ± 0.028
AIILGPPIGWTK	0.757 ± 0.026
GGVSCYVHRRAR	0.688 ± 0.06
AEEWPVRAGGRG	0.609 ± 0.056
ATDCHVYRPPDL	0.6941 ± 0.0013
PHPVTVFLSHLS	0.499 ± 0.041

Sequence	protein stability index
TTNLDKKILKTS	0.6525 ± 0.0022
KDRGEIKIRTKN	0.696 ± 0.039
PAWVEARWLCRG	0.764 ± 0.069
RAGALYLGICDT	0.738 ± 0.069
TVPAKQHLSGYE	0.679 ± 0.011
ASSVLLIAQLQS	0.619 ± 0.0054
VLVSSLSSSKFF	0.647 ± 0.088
EECGVIDIILGG	0.679 ± 0.013
PVRRAHPPPPRP	0.674 ± 0.014
GIGGNWAVSRNC	0.73 ± 0.12
LAPTNAPYPHPM	0.658 ± 0.015
SLWIKRSPVFSF	0.563 ± 0.014
SYLFRLLFATLP	0.601 ± 0.033
RLHAILKRSGLE	0.722 ± 0.068
YVCRCGCLVKSV	0.656 ± 0.043
CSCGRGRLARRL	0.686 ± 0.13
YNINIKKENITE	0.68 ± 0.025
RGVWWWWGVAGA	0.749 ± 0.17
YVCLATLSSFSF	0.644 ± 0.048
CVDSRRCCSCFC	0.59 ± 0.074
SPFLPAHPPPTA	0.714 ± 0.065
AATDWFHLPFPP	0.682 ± 0.15
RGGAGRRWGRGK	0.631 ± 0.073
QGGGGGGVCGMV	0.721 ± 0.011
SYNYMSIVMYRL	0.587 ± 0.0071

Sequence	protein stability index
GVAGRRRRAGAW	0.7294 ± 0.002
SVVFSQCLVNLG	0.659 ± 0.062
RFLMGYEVNCAV	0.548 ± 0.015
LRQKKIELPIEP	0.687 ± 0.02
GPTGPATQNDDS	0.671 ± 0.018
QGSAGRHVRTNL	0.701 ± 0.06
PLFTPPPVLHHP	0.752 ± 0.031
SNLHCLQRGYSV	0.725 ± 0.011
AGALYGNPCPPL	0.657 ± 0.019
RTLPFPHAGLLF	0.6816 ± 0.0061
WPPRPPRPSSTL	0.724 ± 0.011
GFLVNNCLGFLW	0.782 ± 0.051
SLSFPPNTFSFP	0.738 ± 0.059
SQCGSLQIGRHL	0.714 ± 0.052
GGRRVWAGRTGV	0.734 ± 0.077
RNHHPHHVPTSR	0.667 ± 0.03
SSNVTVLGVLYC	0.6973 ± 0.0049
ARSPLTIGLYPF	0.6915 ± 0.0016
ILILDTKPISKT	0.7258 ± 0.006
TSPVPPSTPAPP	0.6686 ± 0.0045
GGGWGGGGSSCA	0.659 ± 0.055
DNRKIRSEKITP	0.69 ± 0.099
KKQKKKQNKQKT	0.731 ± 0.026
GSSGRFFHVVVF	0.644 ± 0.074
GSPRFSNGCEYF	0.59 ± 0.026

Sequence	protein stability index
GVGGGISGGRWG	0.666 ± 0.088
RKQNVASESERK	0.752 ± 0.094
PVPPFDGLVPAL	0.728 ± 0.089
PPCFPHPLPPPR	0.744 ± 0.022
FSPSPPPPPFPL	0.659 ± 0.024
LPPLCLPPPAHP	0.733 ± 0.026
SAPGIGFYTKSL	0.653 ± 0.064
PSVRRLPARRRT	0.626 ± 0.066
VFGAHGRYQDSR	0.607 ± 0.054
SPRGLQSAPSGI	0.7399 ± 0.0057
SRPFLPPSPRPA	0.757 ± 0.11
LLPQSPRPLVHS	0.774 ± 0.065
PPSPRPALPLSL	0.762 ± 0.039
DSSKFYTPATLL	0.693 ± 0.048
GVGWGSRGVCLG	0.659 ± 0.095
GGWCGGGGAWSG	0.6985 ± 0.0027
IGGFGVRIYFGG	0.627 ± 0.056
PTTQVGRRTPLA	0.647 ± 0.029
GRGGGGGRDREA	0.703 ± 0.076
KIIARMEKGKEI	0.771 ± 0.042
RFSPARPASPPP	0.687 ± 0.036
